Target: T1, cGAS-His (human, UniProt Q8N884 1-522)
T1 chain: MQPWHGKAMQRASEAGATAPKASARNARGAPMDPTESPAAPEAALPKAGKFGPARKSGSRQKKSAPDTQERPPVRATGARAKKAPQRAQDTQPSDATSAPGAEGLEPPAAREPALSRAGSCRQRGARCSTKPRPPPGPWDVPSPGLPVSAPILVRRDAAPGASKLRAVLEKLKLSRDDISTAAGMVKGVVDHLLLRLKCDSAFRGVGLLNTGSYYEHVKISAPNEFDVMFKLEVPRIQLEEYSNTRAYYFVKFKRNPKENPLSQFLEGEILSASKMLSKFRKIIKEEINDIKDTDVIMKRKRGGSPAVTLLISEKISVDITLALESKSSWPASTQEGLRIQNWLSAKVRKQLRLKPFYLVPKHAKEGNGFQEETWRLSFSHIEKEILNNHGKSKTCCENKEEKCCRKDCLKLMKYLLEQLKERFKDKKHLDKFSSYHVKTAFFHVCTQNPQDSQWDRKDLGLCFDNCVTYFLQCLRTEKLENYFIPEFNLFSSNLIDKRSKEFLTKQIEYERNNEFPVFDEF
Assay: SPR

Kd: 470 nM
B1: GST-PCBP2 (natural protein)
chain: MDTGVIEGGLNVTLTIRLLMHGKEVGSIIGKKGESVKKMREESGARINISEGNCPERIITLAGPTNAIFKAFAMIIDKLEEDISSSMTNSTAASRPPVTLRLVVPASQCGSLIGKGGCKIKEIRESTGAQVQVAGDMLPNSTERAITIAGIPQSIIECVKQICVVMLETLSQSPPKGVTIPYRPKPSSSPVIFAGGQDRYSTGSDSASFPHTTPSMCLNPDLEGPPLEAYTIQGQYAIPQPDLTKLHQLAMQQSHFPMTHGNTGFSGIESSSPEVKGYWGLDASAQTTSHELTIPNDLIGCIIGRQGAKINEIRQMSGAQIKIANPVEGSTDRQVTITGSAASISLAQYLINVRLSSETGGMGSS

From paper PMC8943206 (2022)
